Measurements taken from publication PMC5253658, “SCIMP is a transmembrane non-TIR TLR adaptor that promotes proinflammatory cytokine production from macrophages” (Nature Communications, 2017).

T1: His-TLR4-TIR (cytoplasmic TIR domain of mouse TLR4, amino acids 670-835) (mouse, UniProt Q9QUK6 670-835)
T1 construct: TLR4, mouse, cytoplasmic TIR domain, amino acids 670-835; codon-optimized gene from Genscript; subcloned into pET28a; also called His-tagged TLR4-TIR domain; recombinant TLR4-TIR; source: E. coli, purified (Ni-NTA)
T1 sequence (looked up): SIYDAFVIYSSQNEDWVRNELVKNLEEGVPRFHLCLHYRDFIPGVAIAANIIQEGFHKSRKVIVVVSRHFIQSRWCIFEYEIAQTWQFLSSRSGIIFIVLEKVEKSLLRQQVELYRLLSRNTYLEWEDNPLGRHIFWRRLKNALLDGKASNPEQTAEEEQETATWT

B1: fluorescently labelled recombinant SCIMP-T1 (BODIPY FL) (domain or fragment)
chain: not shown
modifications: labelled with BODIPY FL Iodoacetamide
notes: SCIMP, mouse, T1, amino acids 29-150; also called labelled SCIMP; fluorescently labelled SCIMP-T1; source: E. coli, purified
B2: GST-SCIMP-T1 Y96F (domain or fragment)
chain: not shown
notes: SCIMP, mouse, T1, amino acids 29-150, Y96F; also called (unphosphorylated) Y96F SCIMP mutant; source: E. coli, purified (glutathione-Sepharose beads)
B3: GST-SCIMP-T1 (entire intracellular region of murine SCIMP, amino acids 29-150) (domain or fragment)
chain: not shown
notes: subcloned into pGEX6p-1; also called SCIMP-GST; source: E. coli, purified (glutathione-Sepharose beads)
B4: GST-SCIMP-T2 (C terminal region of murine SCIMP, amino acids 93-150) (domain or fragment)
chain: not shown
notes: SCIMP, mouse, C terminal region, amino acids 93-150; lacks the PRD; subcloned into pGEX6p-1; source: E. coli, purified (glutathione-Sepharose beads)

How the values were obtained:
[1] = molecular target: T1, His-TLR4-TIR (cytoplasmic TIR domain of …); assay: other fluorescence titration; BODIPY FL-labelled SCIMP-T1 titrated with unlabelled TLR4-TIR; 25 °C, 30 mM Tris pH 7.4, 150 mM NaCl, 1 mM dithiothreitol; curve fit (Grafit); details: both partners purified
[2] = molecular target: T1, His-TLR4-TIR (cytoplasmic TIR domain of …); assay: pull-down; GST-SCIMP (T1, T2 or T1 mutants) as bait, recombinant His-TLR4-TIR as prey; immunoblot against the His tag; details: both partners purified

Binder | Kd [1] | binding result [2]
B1 | 212 nM | 
B2 |  | binds
B3 |  | binds
B4 |  | binds
